Experimental data taken from article PMC5843355, “Evaluation of the Trypanosoma brucei 6-oxopurine salvage pathway as a potential target for drug discovery” (PLoS Neglected Tropical Diseases, 2018).
Values joined by “and” are separate entries in the source; they are usually repeats but may differ in a detail not shown here. Identical values can stand only once.

How the values were obtained:
[1] = substrate: O=c1[nH]c(=O)c2[nH]cnc2[nH]1; assay: purified protein, by the assay type; conditions: other: HGXPRT, PRib-PP 1 mM, pH 8.4, 25°C
[2] = substrate: Nc1nc2nc[nH]c2c(=O)[nH]1; assay: purified protein, by the assay type; conditions: PRib-PP 1 mM, pH 8.4, 25°C
[3] = substrate: O=c1[nH]cnc2nc[nH]c12; assay: purified protein, by the assay type; conditions: PRib-PP 1 mM, pH 8.4, 25°C
[4] = substrate: Nc1nc2nc[nH]c2c(=O)[nH]1; assay: Steady-state kinetic constants of 6-oxopurine bases for HGPRT-I; format: biochemical, Trypanosoma brucei; conditions: other: HGPRT-I, PRib-PP 1 mM, pH 8.4, 25°C
Procedure: The concentration of enzyme in the assay (varied from 75–200 μg/ml for the two enzymes) and the concentration of PRib-PP was kept at 1 mM. The reaction was carried out using a 1.0 cm path length with a UV Visible spectrometer 1601 (Shimadzu) in the reaction buffer (0.1 M Tris, pH 8.4; 0.11 M MgCl2; at 25°C).

B1: HGXPRT (Trypanosoma brucei brucei TREU927) (protein)
chain: HSGHPLKPNFVGRDADGNVTVDGRSYPMAESVVATESTIHRSMKEMAQTLANAYKTLKHRDTHNKGNSALAPITDENPLIIISVLKGSYIFTADMVRYLGDCGLPNVVDFIRITSYRGTTKSSGTVQVLDNLRFTELTGKHVLIMEDIADTGRTMKLLVEKIRREYRPASLKVCVLVDKPGGRVVDFKPEFVCLTAPTRYVVGYGFEVNDRYRNYRHVFVLKPEYAKRYPSKL
With B1 the Km [1] was 31.9 ± 7.5 µM, the kcat [1] was 3.66 s⁻¹ and the kcat/Km [1] was 110000 M⁻¹ s⁻¹. For the same protein, the Km ([2]; other: HGXPRT) was 32 ± 4.8 µM, the Km ([3]; other: HGXPRT) was 30.6 ± 7.8 µM and the kcat ([3]; other: HGXPRT) was 2.4 s⁻¹. The kcat/Km ([3]; other: HGXPRT) was 80000 M⁻¹ s⁻¹.

B2: HGPRT-I (Trypanosoma brucei brucei) (protein)
chain: EPACKYDFATSVLFTEAELHTRMRGVAQRIADDYSNCNLKPLENPLVIVSVLKGSFVFTADMVRILGDFGVPTRVEFLRASSYGHDTKSCGRVDVKADGLCDIRGKHVLVLEDILDTALTLREVVDSLKKSEPASIKTLVAIDKPGGRKIPFTAEYVVADVPNVFVVGYGLDYDQSYREVRDVVILKPSVYETWGKELERRKAAGEAKR
notes: 6x His-tag (N); AcTEV cleavage site (N); made in house; host or cells: E. coli One Shot BL21(DE3)
B2 was tested, and the Km [4] was 16 µM and 15.9 ± 4.8 µM, the kcat [4] was 0.38 s⁻¹ and the kcat/Km [4] was 20000 M⁻¹ s⁻¹. It also gave a Km ([3]; other: HGPRT-I) of 13.7 ± 2.9 µM.

B3: HGPRT-II (Trypanosoma brucei brucei TREU927) (protein)
chain: EPACKYDFATSVLFTEAELHTRMRGVAQRIADDYSNCNLKPLENPLVVVSVLRGSFVFTADMVRILGDFGVPTRVEFLRASSYGHDTKSCGRVDVKADGLCDIRGKHVLVLEDILDTALTLREVVDSLKKSEPASIKTLVAIDKPGGRKIPFTAEYVVADVPNVFVVGYGLDYDQSYREVRDVVILKPSVYETWGKELERRKAAVKAKL
B3 showed a Km ([2]; other: HGPRT-II) of 7.1 ± 1.8 µM, a Km ([3]; other: HGPRT-II) of 4.2 ± 0.9 µM and a kcat ([3]; other: HGPRT-II) of 0.03 s⁻¹. It also gave a kcat/Km ([3]; other: HGPRT-II) of 7000 M⁻¹ s⁻¹.
